Measured values reported in patent publication US20100292083A1 (Ablynx, published 2010).

T1: human IL6R (human, UniProt P08887 20-358, limits assumed)
T1 construct: Antigen of the Biacore experiments
T1 sequence (looked up): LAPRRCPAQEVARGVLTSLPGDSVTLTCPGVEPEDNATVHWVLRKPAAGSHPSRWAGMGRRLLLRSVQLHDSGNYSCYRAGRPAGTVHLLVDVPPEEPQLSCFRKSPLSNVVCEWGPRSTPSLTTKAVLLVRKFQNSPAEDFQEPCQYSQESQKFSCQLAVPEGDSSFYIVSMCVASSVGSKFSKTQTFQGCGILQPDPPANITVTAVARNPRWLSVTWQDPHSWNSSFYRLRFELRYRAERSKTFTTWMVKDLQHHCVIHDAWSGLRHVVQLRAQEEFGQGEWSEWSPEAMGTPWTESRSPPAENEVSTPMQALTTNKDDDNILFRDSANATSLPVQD

B1: IL6R65PMP10A11 (VHH)
VHH: EVQLVESGGGLVQPGGSLRLSCAASGSIFKVNAMGWYRQAPGKGRELVAGIISGGSTNYADSVKGRFTISRDNAKNTLYLQMNSLRPEDTAVYYCAFIASNSEYDLGRRFWGQGTLVTVSS
notes: CDR3 library clone
B2: IL6R65PMP11A12 (VHH)
VHH: EVQLVESGGGLVQPGGSLRLSCAASGTIFRVNVMAWYRQAPGKGRELVAGIITNGSTSYADSVKGRFTISRDNAKNTLYLQMNSLRPEDTAVYYCAFVTTNSDYDLGRDYWGQGTLVTVSS
B3: IL6R65PMP11B4 (VHH)
VHH: EVQLVESGGGLVQPGGSLRLSCAASGSIFKINVMAWYRQAPGKGRELVAAIINGGTTSYADSVKGRFTISRDNAKNTLYLQMNSLRPEDTAVYYCAFVTTNSDYDLGRDYWGQGTLVTVSS
B4: IL6R65PMP11C4 (VHH)
VHH: EVQLVESGGGLVQPGGSLRLSCAASGTIFKINVMAWYRQAPGKGRELVAGIITNGSTTYADSVKGRFTISRDNAKNTLYLQMNSLRPEDTAVYYCAFVTTNSDYDLGRDYWGQGTLVTVSS
B5: IL6R65PMP11C7 (VHH)
VHH: EVQLVESGGGLVQPGGSLRLSCAASGTIFKVNIMAWYRQAPGKGRELVAAIITSGTTTYADSVKGRFTISRDNAKNTLYLQMNSLRPEDTAVYYCAFVTTNSDYDLGRDYWGQGTLVTVSS
B6: IL6R65PMP11D3 (VHH)
VHH: EVQLVESGGGLVQPGGSLRLSCAASGSIFKLNVMAWYRQAPGKGRELVAGVITGGNTSYADSVKGRFTISRDNAKNTLYLQMNSLRPEDTAVYYCAFVTTNSDYDLGRDYWGQGTLVTVSS
B7: IL6R65PMP11D4 (VHH)
VHH: EVQLVESGGGLVQPGGSLRLSCAASGTTFKINIMAWYRQAPGKGRELVAGVINSGTTNYADSVKGRFTISRDNAKNTLYLQMNSLRPEDTAVYYCAFVTTNSDYDLGRDYWGQGTLVTVSS
B8: IL6R65PMP11D6 (VHH)
VHH: EVQLVESGGGLVQPGGSLRLSCAASGTTFKINVMAWYRQAPGKGRELVAAIISGGSTPYADSVKGRFTISRDNAKNTLYLQMNSLRPEDTAVYYCAFVTTNSDYDLGRDYWGQGTLVTVSS
B9: IL6R65PMP11D11 (VHH)
VHH: EVQLVESGGGLVQPGGSLRLSCAASGSTFKINIMAWYRQAPGKGRELVAGVITGGNTNYADSVKGRFTISRDNAKNTLYLQMNSLRPEDTAVYYCAFVTTNSDYDLGRDYWGQGTLVTVSS
B10: IL6R65PMP11D12 (VHH)
VHH: EVQLVESGGGLVQPGGSLRLSCAASGTIFKINIMAWYRQAPGKGRELVAAIINSGSTSYADSVKGRFTISRDNAKNTLYLQMNSLRPEDTAVYYCAFVTTNSDYDLGRDYWGQGTLVTVSS
B11: IL6R65PMP11E2 (VHH)
VHH: EVQLVESGGGLVQPGGSLRLSCAASGTTFKVNIMAWYRQAPGKGRELVAAIITGGSTSYADSVKGRFTISRDNAKNTLYLQMNSLRPEDTAVYYCAFVTTNSDYDLGRDYWGQGTLVTVSS
B12: IL6R65PMP11E4 (VHH)
VHH: EVQLVESGGGLVQPGGSLRLTCAASGTIFKVNVMAWYRQAPGKGRELVAAIITGGSTSYADSVKGRFTISRDNAKNTLYLQMNSLRPEDTAVYYCAFVTTNSDYDLGRDYWGQGTLVTVSS
B13: IL6R65PMP11E5 (VHH)
VHH: EVQLVESGGGLVQPGGSLRLSCAASGSTFRINIMAWYRQAPGKGRELVAGVITSGNTTYADSVKGRFTISRDNAKNTLYLQMNSLRPEDTAVYYCAFVTTNSDYDLGRDYWGQGTLVTVSS

Target: T1, human IL6R
Test: SPR (Biacore), periplasmic extract
Method: Selection outputs were analyzed by picking individual colonies and growing them overnight in 1 ml 2×YT (Yeast Tryptone) medium+100 ug/ml Carbenicillin at 37 C. Nanobody containing periplasmic extracts were prepared, diluted 1/10 in PBS and subsequently tested for antigen binding in ELISA. Clones with the highest ELISA signals were sequenced and analyzed on Biacore. […] The off-rate of the best clone from the CDR3 library was 7×10e-4 s-1.

With B1 as the binder, how does the koff read?
The koff was 0.001 s⁻¹.

For B2, which koff is on record?
The koff was 0.00012 s⁻¹.

How did the koff turn out when B3 was run?
Its koff is 0.00028 s⁻¹.

With B4 as the binder, how does the koff read?
The koff was 0.00031 s⁻¹.

B5 was tested. Which koff did it give?
The koff was 0.00085 s⁻¹.

Which koff does the source give for B6 here?
Its koff is 0.00031 s⁻¹.

With B7 as the binder, how does the koff read?
Its koff is 0.001 s⁻¹.

With B8 as the binder, how does the koff read?
The koff was 0.00068 s⁻¹.

B9 was tested. Which koff did it give?
Its koff is 0.00039 s⁻¹.

With B10 as the binder, how does the koff read?
Its koff is 0.00058 s⁻¹.

With B11 as the binder, how does the koff read?
The koff was 0.00068 s⁻¹.

B12 was tested. Which koff did it give?
Its koff is 0.00023 s⁻¹.

B13 was tested. Which koff did it give?
The koff was 0.00048 s⁻¹.
